From paper PMC3214078, “The PHD Finger of Human UHRF1 Reveals a New Subgroup of Unmethylated Histone H3 Tail Readers” (PLoS ONE, 2011) come the findings set out here.

Conditions in all cases: both partners purified
Experiment [1] deals with T1, huUHRF1-PHD(296–367), PHD finger of human UHRF1 with the additional N-terminal zinc finger (human, UniProt Q96T88 296-367).
T1 construct: Vector pHGGWA (Gateway); also called ICBP90 PHD finger
T1 sequence (looked up): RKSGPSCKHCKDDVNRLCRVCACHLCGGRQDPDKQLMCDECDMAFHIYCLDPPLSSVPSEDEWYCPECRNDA
As to the kind of experiment: crystal structure; huUHRF1-PHD(296–367) at 606 µM with a 10-fold excess of H3 peptide (1–8); vapor diffusion at 17°C, 0.1 M Tris pH 8.5, 0.2 M MgCl2, 30% PEG 4000; 1.95 Å.

The target in experiment [2] is T1, huUHRF1-PHD(296–367), PHD finger of …. The experiment in a line: ITC; 20°C; histone peptides (1–12Y, 1.5–2 mM) injected into huUHRF1-PHD (0.12–0.18 mM); 20 mM Tris pH 7, 150 mM NaCl, 0.5 mM TCEP, 25 µM ZnCl2, 0.1 mM PMSF.
The target of experiment [3] is T2, huUHRF1-PHD(296–367) D334A (human, UniProt Q96T88 296-367, D334A).
T2 sequence (looked up): T1 sequence (looked up) with D39A
The experiment is described as above.

The target in experiment [4] is T3, huUHRF1-PHD(296–367) D337A (human, UniProt Q96T88 296-367, D337A).
T3 sequence (looked up): T1 sequence (looked up) with D42A
The experiment is described as above.

Changes are numbered by the printed parent chain. In names and notes the source's numbering stands. Where no end group is shown, it is not given here. Me3 = trimethyl-lysine

B1: short histone H3 peptide including residues 1–8, unmodified (peptide, UniProt P68431 2-9, looked up)
peptide: ARTKQTAR
notes: histone H3 N-terminal tail, residues 1-8 (five of the eight seen in the map); also called unmodified histone H3 peptide; histone H3 tail
For B1, the binding result in experiment [1] is listed as “binds”.

B2: histone H3 peptide (1–12Y) with trimethylated K4 (peptide)
peptide: ARTK(Me3)QTARKSTGY
notes: histone H3 N-terminal tail, residues 1-12; tyrosine after residue 12, read from the label '1–12Y'; also called H3K4me3
The Kd is a measure of binding affinity in units of concentration. Low values mean higher affinity, high ones lower affinity. As for B2, in experiment [2], binding was characterised by a dissociation constant (Kd) of 25.9 µM and the dH was -11.6 kcal/mol.

B3: histone H3 peptide (1–12Y), unmodified (peptide)
peptide: ARTKQTARKSTGY
notes: histone H3 N-terminal tail, residues 1-12; tyrosine after residue 12, read from the label '1–12Y'; also called unmodified H3; H3K4me0
As for B3, the Kd in experiment [2] was 7.9 µM; in experiment [3] it was above 500 µM; in experiment [4], around 70 µM. Besides, the dH in experiment [2] was -17.6 kcal/mol.

B4: histone H3 peptide (1–12Y) with K4 mutated to alanine (peptide)
peptide: ARTAQTARKSTGY
notes: histone H3 N-terminal tail, residues 1-12 with K4A; tyrosine after residue 12, read from the label '1–12Y'; also called H3K4A
With B4, in experiment [2], binding was put at a Kd of 17 µM and the dH was -14.1 kcal/mol.
